This is an account of results in patent US20260063625A1, “COMPOSITIONS FOR AND METHODS OF DETECTING FOOD TOXINS” (priority 2022, published 2026).

The nature of the experiment: Fluorescence polarization (FP) binding to fluorescein labeled STX. Conditions: T = 298K; for […]G (kcal mol^−1) relative to RcSxph: […]G = RT ln (Kd(XSxph)/Kd(RcSxph)); for […]G (kcal mol^−1) relative to wild-type RcSxph: […]G = RT ln (KdSxph mutant/KdSxph). As for the experimental part: […]; Measurements were performed at 25° C. on a Synergy H1 microplate reader (BioTek) using the polarization filter setting (excitation 485 nm, emission 528 nm). […]. The dissociation constants were calculated using GraphPad Prism by fitting fluorescence millipolarization (mP=P·10^−3, where P is polarization) as a function of Sxph concentration using the equation: P={(Pbound−Pfree) [Sxph]/(Kd+[Sxph])}+Pfree, where P is the polarization measured at a given Sxph concentration, Pfree is the […], and Pbound is the maximum polarization of Sxph bound by F-STX (Rossi and Taylor, Hansen et al.).

Changes are numbered by the printed parent chain. Names and notes keep the numbering of the source.

B1: MaSxph: Saxiphilin of Mantella aurantiaca, Golden mantella, SEQ ID NO:3 (protein, listed as Mantella aurantiaca)
chain: MALTFQTALYFTIIGLSFVTSSARDVRWCVISDLEQKKCNDLVGSCKVSGITLVCVHRSSTENCMTAIRDEQADAMFLDSGDVYKASMSPYNLKPIIAESYSSHKECLKKRQEALGGANVLGQFVPQCDEKGSYQPQQCYGSTGHCWCVNAIGEEIVGTKTQPGQTQATCERHDQTKCLKDRQKALAKKMIGGFVPQCDEKGNFKPRQCHGSTGYCWCTNANGEKIAATNTPPQQSPPTCERHDLDSCHYAVAVVKKSSIFQFNQLKGKRSCHSGVSKTDGWKAPVSVLVDKNLLSWDRAAKESIEKAVSKFFSDSCIPGATETNLCNQCMGEGGKKCMSSHDEPYYGDHGAFRCLKEDKGDVAFLKNTVLSDTHSEDYELLCPDNTRKPLNKYKECNLGKVPADAVVTRKSGDKIKDINDFLLEAQKKHCQLFSSAHGKDLMFDDSTTQLSLLPPEVDVFFFLGVQWLNTMKTLTADVKPPSKNKVRWCTVNNLEKMKCDDWSAVSGGAIECTEASSPEHCIKQIVKGEADAVTLDVQYMYEALKCGLLPAVEEYHNKDDFGPCKTPGSEIKDFGAKRAVALVKKSNKDINWHNLKGKKSCHTGVGDQAGWIIPVGLISRQIDNCNIDSFFSESCAPGSDTTSNFCKLCIGDPSNPMANTKCSLSDKEAYHGNEGAIRCLVEKGDVAFVHHTAVFENTDGKNPAEWAANLKSEDFEILCLDGSRAPVSNYMTCRLSGVPPRAIVTREESVSDVVRILINQQSLFGRNGFEKDMFQMFSSNKGQNLLFNDGTQCLIEFDRQPRGIMEDYFGKPYYNAVYNTSKCVLPSELTSACTFKHC
Consider B1, for which the “[…]G (kcal mol^−1) relative to RcSxph” value was -1.73 kcal/mol.

B2: RiSxph: Saxiphilin of Ranitomeya imitator, Mimic poison frog, SEQ ID NO:6 (protein)
chain: MRRSSYAASQEMRMTLRVLLCLCLWALSSAAPNTRNVRWCVTSDTEEQKCNDLVTSCHVDEILLICVKKSSTEDCVRAISNGEADAISLDSKDVYKASLDPFNLKPIMTEAYSESEHTPCMRHRQSVLGGKIMKIGAFVPKCDEKGNYVPKQCHGSTGYCWCLNENGEEIEGTRTPPGNPGLTCENKANKPPCLKERQKLLSAKPSPAVFVPECDEKGNYRPQQSHVYSWCVDEYGEEVFGSRSFPGKPPKPCEASGETPCIKERNKVLSAAEPLLGAFVPDCDEKGYFSPLQSHGSTGYSWCVTKNGDEIKGTRTGPGQSPPTCEVPAPVTLHYAVAVVKKSSSFHLDQLKGKRSCHSAVGEAAGWVAPLNVLLKKKLLLWEEPEPKTIEKVASEIFSASCAPGAQEANLCEQCAGQEDKCTRGPGEPYYGDEGAFRCLREDKGDVAFVEDTALTGQYSDNFELLCPDNTRRPLSQYKICNFGRIPRHAVVTRSSGDKMKDITEYLLQAQKKECKLFSSTHGKDLLFEDTTSALIALPSAMDTFLFLGPDLFNGMKTLNGARPPQVNQQIRWCPQSKNEKKKCDDWSSVSGGAIKCTEPSSGLECIKMILKGEAEAVNLDIEHSYIALKCGLLPSVDEYRNKDDLIPCQIPGSEYSEFGSYRIVALVKKTDKDLTWNNLQGKKSCHTRAGDMIGWNIPVYLISKKTKNCDLGSYFSQSCAPGSPIDSNLCKLCIGDPQNPQANTKCSISDKEAYYGHEGAIRCLVEKGDVAFVPHTAIFENTDGKNPALWAKDLKSTDFELLCPDGSRAPVNDYKKCKLSGIANQIAITRPESVKDVVRIIQNQQSLYGRTGSQKDIFQMFSSSYGQNLLFSDRTQCLVEFDRMLDRDIMDDYFGKPFHKHLLRDNDCLPKSALASACSFHH
modifications: Ranitomeya imitator
Consider B2, for which the “[…]G (kcal mol^−1) relative to RcSxph” value was -1.32 kcal/mol.

B3: E540Q: RcSxph mutant E540Q (protein)
chain: MAPTFQTALFFTIISLSFAAPNAKQVRWCAISDLEQKKCNDLVGSCNVPDITLVCVLRSSTEDCMTAIKDGQADAMFLDSGEVYEASKDPYNLKPIIAEPYSSNRDLQKCLKERQQALAKKMIGHYIPQCDEKGNYQPQQCHGSTGHCWCVNAMGEKISGTNTPPGQTRATCERHELPKCLKERQVALGGDEKVLGRFVPQCDEKGNYEPQQFHGSTGYSWCVNAIGEEIAGTKTPPGKIPATCQKHDLVTTCHYAVAMVKKSSAFQFNQLKGKRSCHSGVSKTDGWKALVTVLVEKKLLSWDGPAKESIQRAMSKFFSVSCIPGATQTNLCKQCKGEEGKNCKNSHDEPYYGNYGAFRCLKEDMGDVAFLRSTALSDEHSEVYELLCPDNTRKPLNKYKECNLGTVPAGTVVTRKISDKTEDINNFLMEAQKRQCKLFSSAHGKDLMFDDSTLQLALLSSEVDAFLYLGVKLFHAMKALTGDAHLPSKNKVRWCTINKLEKMKCDDWSAVSGGAIACTEASCPKGCVKQILKGEADAVKLEVQYMYEALMCGLLPAVQEYHNKDDFGPCKTPGSPYTDFGTLRAVALVKKSNKDINWNNIKGKKSCHTGVGDIAGWVIPVSLIRRQNDNSDIDSFFGESCAPGSDTKSNLCKLCIGDPKNSAANTKCSLSDKEAYYGNQGAFRCLVEKGDVAFVPHTVVFENTDGKNPAVWAKNLKSEDFELLCLDGSRAPVSNYKSCKLSGIPPPAIVTREESISDVVRIVANQQSLYGRKGFEKDMFQLFSSNKGNNLLFNDNTQCLITFDRQPKDIMEDYFGKPYYTTVYGASRSAMSSELISACTIKHC
In the case of B3, the “[…]G (kcal mol^−1) relative to wild-type RcSxph” value turned out to be 4.30 kcal/mol.

B4: F784Y: RcSxph mutant F784Y (protein)
chain: B3 chain with Q559E, F803Y
Take B4: the “[…]G (kcal mol^−1) relative to wild-type RcSxph” value amounted to 0.37 kcal/mol.

B5: D794N: RcSxph mutant D794N (protein)
chain: B3 chain with Q559E, D813N
With B5, the “[…]G (kcal mol^−1) relative to wild-type RcSxph” value came to 3.60 kcal/mol.

B6: Y795A: RcSxph mutant Y795A (protein)
chain: B3 chain with Q559E, Y814A
In the case of B6, the “[…]G (kcal mol^−1) relative to wild-type RcSxph” value was 0.08 kcal/mol.

B7: Q787A: RcSxph mutant Q787A (protein)
chain: B3 chain with Q559E, Q806A
B7: the “[…]G (kcal mol^−1) relative to wild-type RcSxph” value is 0.25 kcal/mol.

B8: Y558F: RcSxph mutant Y558F (protein)
chain: B3 chain with Q559E, Y577F
Regarding B8, the “[…]G (kcal mol^−1) relative to wild-type RcSxph” value is -0.10 kcal/mol.

B9: I782F: RcSxph mutant I782F (protein)
chain: B3 chain with Q559E, I801F
B9: the “[…]G (kcal mol^−1) relative to wild-type RcSxph” value was determined as 0.46 kcal/mol.

B10: K789A: RcSxph mutant K789A (protein)
chain: B3 chain with Q559E, K808A
With B10, the “[…]G (kcal mol^−1) relative to wild-type RcSxph” value is -0.22 kcal/mol.

B11: F784S: RcSxph mutant F784S (protein)
chain: B3 chain with Q559E, F803S
Take B11: the “[…]G (kcal mol^−1) relative to wild-type RcSxph” value turned out to be 3.60 kcal/mol.

B12: F784C: RcSxph mutant F784C (protein)
chain: B3 chain with Q559E, F803C
On to B12, for which the “[…]G (kcal mol^−1) relative to wild-type RcSxph” value is 3.15 kcal/mol.

B13: Q787E: RcSxph mutant Q787E (protein)
chain: B3 chain with Q559E, Q806E
As to B13, the “[…]G (kcal mol^−1) relative to wild-type RcSxph” value is -0.09 kcal/mol.

B14: F784L: RcSxph mutant F784L (protein)
chain: B3 chain with Q559E, F803L
For B14, the “[…]G (kcal mol^−1) relative to wild-type RcSxph” value was 1.11 kcal/mol.

B15: T563A: RcSxph mutant T563A (protein)
chain: B3 chain with Q559E, T582A
In the case of B15, the “[…]G (kcal mol^−1) relative to wild-type RcSxph” value was -0.20 kcal/mol.

B16: F784A: RcSxph mutant F784A (protein)
chain: B3 chain with Q559E, F803A
Consider B16, for which the “[…]G (kcal mol^−1) relative to wild-type RcSxph” value came to 2.71 kcal/mol.

B17: I782A/Y558A: RcSxph double mutant I782A/Y558A (protein)
chain: B3 chain with Q559E, Y577A, I801A
In the case of B17, the “[…]G (kcal mol^−1) relative to wild-type RcSxph” value is -1.07 kcal/mol.

B18: D785A: RcSxph mutant D785A (protein)
chain: B3 chain with Q559E, D804A
As to B18, the “[…]G (kcal mol^−1) relative to wild-type RcSxph” value came to 0.57 kcal/mol.
